# Test results taken from patent US5889153A, “Protein or polypeptide, method for producing the same and intermediate compound therefor” (Hisamitsu Pharmaceutical Co., Inc., priority 1994, dated 1999).
# Key:
# blood glucose = assay: pharmacological effect of modified insulin: blood glucose value after intravenous administration; assay type: in vivo; conditions: about 0.5 U intravenously, normal rat
# Description: Then, at prescribed intervals of time, venous blood was sampled to measure the insulin concentration in blood and blood glucose value at each time point.
# [1] = water-solubility of reactive PEG derivative; assay type: physicochemical; conditions: 0.025 mM Na2B4O7.10H2O, pH 9.2, given as the reason for insufficient modification
# Description: After dissolving bovine-derived insulin (6.0 mg) in 0.025 mM Na2 B4 O7.10H2 O (pH: 9.2) in an amount of 200 ml, p-nitrophenyl formate-activated polyethyleneglycolmono-cholesterolether (compound A), N-succinimide-activated polyethyleneglycol-monocholesterolether (compound B), p-nitrophenyl formate-activated polyethyleneglycol-mono-cholesterolether (compound C), cyanulchloride-activated polyethyleneglycol-monocholesterolether (compound D), double-type cyanulchloride-activated polyethyleneglycol-monocholesterolether (compound E), and p-nitrophenyl formate-activated polyethyleneglycol-monocholosterolether (compound F) obtained in Example 1 were respectively added in an amount of 2.0 nmol, and the mixtures were stirred at the room temperature for five hours. The resultant mixtures were purified through gel filtration by the use of Sephadex G-75 (made by Pharmacia Company). The target fraction was desalted and concentrated through ultrafiltration (made by Pharmacia Company), thereby obtaining the target aqueous solution (1.8 mg/ml). In the case of p-nitrophenyl formate-activated polyethylene-glycol-monocholesterolether (compoundA), the target modification was insufficient. […] In the case of p-nitrophenyl formate-activated polyethyleneglycol-monocholesterolether (compound F) also, the chemical modification was not sufficient. This is considered to be due to stereo-hindrance.
# [2] = in-vivo behaviors of modified SOD: SOD concentration in blood after intravenous administration; set-up: species or system rat; conditions: about 5,000 U intravenously; for in-vivo behaviors (SOD concentration in blood): urethane-anesthetized rat or rat with ligated renal artery
# Description: About 5,000 U p-nitrophenyl formate-activated polyethyleneglycol-monocholesterolether (compound C)-modified or non-modified SOD were intravenously administered to an urethane-anesthetized rat or a rat of which only the renal artery was ligated after urethane anesthesia. Then, at prescribed intervals of time, venous blood was sampled to measure the SOD concentration in blood at each time point.
# acute gastric ulcer = assay: pharmacological effect of modified SOD: water immersion stress ulcerative model; assay type: in vivo; conditions: 10,000 U, rat, compared with non-modified SOD
# Description: To a rat, 10,000 U p-nitrophenyl formate-activated polyethyleneglycol-monocholesterolether (compound C)-modified or non-modified SOD were administered. Then, an acute gastric ulcer was caused in accordance with the method for preparing a water immersion stress ulcerative model, and the effect inhibiting generation of ulcer at this point was investigated.
substance,measurement,setting,value
insulin [non-modified insulin],pharmacological effect (blood glucose value),blood glucose,identical pharmacological effects
p-nitrophenyl formate-activated polyethylene-glycolmonocholesterolether [compound A],water-solubility,[1],low water-solubility
"modified SOD: bovine-derived Cu, Zn-SOD modified with p-nitrophenyl formate-activated polyethyleneglycol-monocholesterolether (compound C), Example 3",glomerular filtration,[2]; rat,exempt from glomerular filtration
same,half-life in blood,[2]; rat,extended
same,in-vivo behaviors (SOD concentration in blood),[2],largely improved
same,effect inhibiting generation of ulcer,acute gastric ulcer,production of an ulcer is inhibited
"non-modified SOD: bovine-derived Cu, Zn-SOD (Superoxide Dismutase), not modified",in-vivo behaviors (SOD concentration in blood),[2],clearly improved
